According to publication PMC7367873, “Dissecting the sequence determinants for dephosphorylation by the catalytic subunits of phosphatases PP1 and PP2A” (Nature Communications, 2020):

B1: USP53 (protein, UniProt Q70EK8 1-1073, looked up)
Ubiquitin carboxyl-terminal …: MAWVKFLRKPGGNLGKVYQPGSMLSLAPTKGLLNEPGQNSCFLNSAVQVLWQLDIFRRSLRVLTGHVCQGDACIFCALKTIFAQFQHSREKALPSDNIRHALAESFKDEQRFQLGLMDDAAECFENMLERIHFHIVPSRDADMCTSKSCITHQKFAMTLYEQCVCRSCGASSDPLPFTEFVRYISTTALCNEVERMLERHERFKPEMFAELLQAANTTDDYRKCPSNCGQKIKIRRVLMNCPEIVTIGLVWDSEHSDLTEAVVRNLATHLYLPGLFYRVTDENAKNSELNLVGMICYTSQHYCAFAFHTKSSKWVFFDDANVKEIGTRWKDVVSKCIRCHFQPLLLFYANPDGTAVSTEDALRQVISWSHYKSVAENMGCEKPVIHKSDNLKENGFGDQAKQRENQKFPTDNISSSNRSHSHTGVGKGPAKLSHIDQREKIKDISRECALKAIEQKNLLSSQRKDLEKGQRKDLGRHRDLVDEDLSHFQSGSPPAPNGFKQHGNPHLYHSQGKGSYKHDRVVPQSRASAQIISSSKSQILAPGEKITGKVKSDNGTGYDTDSSQDSRDRGNSCDSSSKSRNRGWKPMRETLNVDSIFSESEKRQHSPRHKPNISNKPKSSKDPSFSNWPKENPKQKGLMTIYEDEMKQEIGSRSSLESNGKGAEKNKGLVEGKVHGDNWQMQRTESGYESSDHISNGSTNLDSPVIDGNGTVMDISGVKETVCFSDQITTSNLNKERGDCTSLQSQHHLEGFRKELRNLEAGYKSHEFHPESHLQIKNHLIKRSHVHEDNGKLFPSSSLQIPKDHNAREHIHQSDEQKLEKPNECKFSEWLNIENSERTGLPFHVDNSASGKRVNSNEPSSLWSSHLRTVGLKPETAPLIQQQNIMDQCYFENSLSTECIIRSASRSDGCQMPKLFCQNLPPPLPPKKYAITSVPQSEKSESTPDVKLTEVFKATSHLPKHSLSTASEPSLEVSTHMNDERHKETFQVRECFGNTPNCPSSSSTNDFQANSGAIDAFCQPELDSISTCPNETVSLTTYFSVDSCMTDTYRLKYHQRPKLSFPESSGFCNNSLS
B2: RRP12 (protein, UniProt Q5JTH9 1-1297, looked up)
RRP12-like protein: MGRSGKLPSGVSAKLKRWKKGHSSDSNPAICRHRQAARSRFFSRPSGRSDLTVDAVKLHNELQSGSLRLGKSEAPETPMEEEAELVLTEKSSGTFLSGLSDCTNVTFSKVQRFWESNSAAHKEICAVLAAVTEVIRSQGGKETETEYFAALMTTMEAVESPESLAAVAYLLNLVLKRVPSPVLIKKFSDTSKAFMDIMSAQASSGSTSVLRWVLSCLATLLRKQDLEAWGYPVTLQVYHGLLSFTVHPKPKIRKAAQHGVCSVLKGSEFMFEKAPAHHPAAISTAKFCIQEIEKSGGSKEATTTLHMLTLLKDLLPCFPEGLVKSCSETLLRVMTLSHVLVTACAMQAFHSLFHARPGLSTLSAELNAQIITALYDYVPSENDLQPLLAWLKVMEKAHINLVRLQWDLGLGHLPRFFGTAVTCLLSPHSQVLTAATQSLKEILKECVAPHMADIGSVTSSASGPAQSVAKMFRAVEEGLTYKFHAAWSSVLQLLCVFFEACGRQAHPVMRKCLQSLCDLRLSPHFPHTAALDQAVGAAVTSMGPEVVLQAVPLEIDGSEETLDFPRSWLLPVIRDHVQETRLGFFTTYFLPLANTLKSKAMDLAQAGSTVESKIYDTLQWQMWTLLPGFCTRPTDVAISFKGLARTLGMAISERPDLRVTVCQALRTLITKGCQAEADRAEVSRFAKNFLPILFNLYGQPVAAGDTPAPRRAVLETIRTYLTITDTQLVNSLLEKASEKVLDPASSDFTRLSVLDLVVALAPCADEAAISKLYSTIRPYLESKAHGVQKKAYRVLEEVCASPQGPGALFVQSHLEDLKKTLLDSLRSTSSPAKRPRLKCLLHIVRKLSAEHKEFITALIPEVILCTKEVSVGARKNAFALLVEMGHAFLRFGSNQEEALQCYLVLIYPGLVGAVTMVSCSILALTHLLFEFKGLMGTSTVEQLLENVCLLLASRTRDVVKSALGFIKVAVTVMDVAHLAKHVQLVMEAIGKLSDDMRRHFRMKLRNLFTKFIRKFGFELVKRLLPEEYHRVLVNIRKAEARAKRHRALSQAAVEEEEEEEEEEEPAQGKGDSIEEILADSEDEEDNEEEERSRGKEQRKLARQRSRAWLKEGGGDEPLNFLDPKVAQRVLATQPGPGRGRKKDHGFKVSADGRLIIREEADGNKMEEEEGAKGEDEEMADPMEDVIIRNKKHQKLKHQKEAEEEELEIPPQYQAGGSGIHRPVAKKAMPGAEYKAKKAKGDVKKKGRPDPYAYIPLNRSKLNRRKKMKLQGQFKGLVKAARRGSQVGHKNRRKDRRP
B3: DDX17 (protein, UniProt Q92841 1-729, looked up)
Probable ATP-dependent RNA …: MPTGFVAPILCVLLPSPTREAATVASATGDSASERESAAPAAAPTAEAPPPSVVTRPEPQALPSPAIRAPLPDLYPFGTMRGGGFGDRDRDRDRGGFGARGGGGLPPKKFGNPGERLRKKKWDLSELPKFEKNFYVEHPEVARLTPYEVDELRRKKEITVRGGDVCPKPVFAFHHANFPQYVMDVLMDQHFTEPTPIQCQGFPLALSGRDMVGIAQTGSGKTLAYLLPAIVHINHQPYLERGDGPICLVLAPTRELAQQVQQVADDYGKCSRLKSTCIYGGAPKGPQIRDLERGVEICIATPGRLIDFLESGKTNLRRCTYLVLDEADRMLDMGFEPQIRKIVDQIRPDRQTLMWSATWPKEVRQLAEDFLRDYTQINVGNLELSANHNILQIVDVCMESEKDHKLIQLMEEIMAEKENKTIIFVETKRRCDDLTRRMRRDGWPAMCIHGDKSQPERDWVLNEFRSGKAPILIATDVASRGLDVEDVKFVINYDYPNSSEDYVHRIGRTARSTNKGTAYTFFTPGNLKQARELIKVLEEANQAINPKLMQLVDHRGGGGGGGGRSRYRTTSSANNPNLMYQDECDRRLRGVKDGGRRDSASYRDRSETDRAGYANGSGYGSPNSAFGAQAGQYTYGQGTYGAAAYGTSSYTAQEYGAGTYGASSTTSTGRSSQSSSQQFSGIGRSGQQPQPLMSQQFAQPPGATNMIGYMGQTAYQYPPPPPPPPPSRK
B4: SLC39A7 (protein, UniProt Q92504 1-469, looked up)
Zinc transporter SLC39A7: MARGLGAPHWVAVGLLTWATLGLLVAGLGGHDDLHDDLQEDFHGHSHRHSHEDFHHGHSHAHGHGHTHESIWHGHTHDHDHGHSHEDLHHGHSHGYSHESLYHRGHGHDHEHSHGGYGESGAPGIKQDLDAVTLWAYALGATVLISAAPFFVLFLIPVESNSPRHRSLLQILLSFASGGLLGDAFLHLIPHALEPHSHHTLEQPGHGHSHSGQGPILSVGLWVLSGIVAFLVVEKFVRHVKGGHGHSHGHGHAHSHTRGSHGHGRQERSTKEKQSSEEEEKETRGVQKRRGGSTVPKDGPVRPQNAEEEKRGLDLRVSGYLNLAADLAHNFTDGLAIGASFRGGRGLGILTTMTVLLHEVPHEVGDFAILVQSGCSKKQAMRLQLLTAVGALAGTACALLTEGGAVGSEIAGGAGPGWVLPFTAGGFIYVATVSVLPELLREASPLQSLLEVLGLLGGVIMMVLIAHLE
B5: SLC3A2 (protein, UniProt P08195 1-630, looked up)
Amino acid transporter heavy …: MELQPPEASIAVVSIPRQLPGSHSEAGVQGLSAGDDSELGSHCVAQTGLELLASGDPLPSASQNAEMIETGSDCVTQAGLQLLASSDPPALASKNAEVTGTMSQDTEVDMKEVELNELEPEKQPMNAASGAAMSLAGAEKNGLVKIKVAEDEAEAAAAAKFTGLSKEELLKVAGSPGWVRTRWALLLLFWLGWLGMLAGAVVIIVRAPRCRELPAQKWWHTGALYRIGDLQAFQGHGAGNLAGLKGRLDYLSSLKVKGLVLGPIHKNQKDDVAQTDLLQIDPNFGSKEDFDSLLQSAKKKSIRVILDLTPNYRGENSWFSTQVDTVATKVKDALEFWLQAGVDGFQVRDIENLKDASSFLAEWQNITKGFSEDRLLIAGTNSSDLQQILSLLESNKDLLLTSSYLSDSGSTGEHTKSLVTQYLNATGNRWCSWSLSQARLLTSFLPAQLLRLYQLMLFTLPGTPVFSYGDEIGLDAAALPGQPMEAPVMLWDESSFPDIPGAVSANMTVKGQSEDPGSLLSLFRRLSDQRSKERSLLHGDFHAFSAGPGLFSYIRHWDQNERFLVVLNFGDVGLSAGLQASDLPASASLPAKADLLLSTQPGREEGSPLELERLKLEPHEGLLLRFPYAA
B6: ADAR (protein, UniProt P55265 1-1226, looked up)
Double-stranded RNA-specific …: MNPRQGYSLSGYYTHPFQGYEHRQLRYQQPGPGSSPSSFLLKQIEFLKGQLPEAPVIGKQTPSLPPSLPGLRPRFPVLLASSTRGRQVDIRGVPRGVHLRSQGLQRGFQHPSPRGRSLPQRGVDCLSSHFQELSIYQDQEQRILKFLEELGEGKATTAHDLSGKLGTPKKEINRVLYSLAKKGKLQKEAGTPPLWKIAVSTQAWNQHSGVVRPDGHSQGAPNSDPSLEPEDRNSTSVSEDLLEPFIAVSAQAWNQHSGVVRPDSHSQGSPNSDPGLEPEDSNSTSALEDPLEFLDMAEIKEKICDYLFNVSDSSALNLAKNIGLTKARDINAVLIDMERQGDVYRQGTTPPIWHLTDKKRERMQIKRNTNSVPETAPAAIPETKRNAEFLTCNIPTSNASNNMVTTEKVENGQEPVIKLENRQEARPEPARLKPPVHYNGPSKAGYVDFENGQWATDDIPDDLNSIRAAPGEFRAIMEMPSFYSHGLPRCSPYKKLTECQLKNPISGLLEYAQFASQTCEFNMIEQSGPPHEPRFKFQVVINGREFPPAEAGSKKVAKQDAAMKAMTILLEEAKAKDSGKSEESSHYSTEKESEKTAESQTPTPSATSFFSGKSPVTTLLECMHKLGNSCEFRLLSKEGPAHEPKFQYCVAVGAQTFPSVSAPSKKVAKQMAAEEAMKALHGEATNSMASDNQPEGMISESLDNLESMMPNKVRKIGELVRYLNTNPVGGLLEYARSHGFAAEFKLVDQSGPPHEPKFVYQAKVGGRWFPAVCAHSKKQGKQEAADAALRVLIGENEKAERMGFTEVTPVTGASLRRTMLLLSRSPEAQPKTLPLTGSTFHDQIAMLSHRCFNTLTNSFQPSLLGRKILAAIIMKKDSEDMGVVVSLGTGNRCVKGDSLSLKGETVNDCHAEIISRRGFIRFLYSELMKYNSQTAKDSIFEPAKGGEKLQIKKTVSFHLYISTAPCGDGALFDKSCSDRAMESTESRHYPVFENPKQGKLRTKVENGEGTIPVESSDIVPTWDGIRLGERLRTMSCSDKILRWNVLGLQGALLTHFLQPIYLKSVTLGYLFSQGHLTRAICCRVTRDGSAFEDGLRHPFIVNHPKVGRVSIYDSKRQSGKTKETSVNWCLADGYDLEILDGTRGTVDGPRNELSRVSKKNIFLLFKKLCSFRYRRDLLRLSYGEAKKAARDYETAKNYFKKGLKDMGYGNWISKPQEEKNFYLCPV

What follows are molecules tested on GFP-14-3-3β (assay: GFP-14-3-3β co-IP with LC-MS/MS, untreated GFP-14-3-3β versus GFP control (14-3-3 interactome)). Details: log2 difference; pairwise comparison untreated vs GFP, label-free quantification, 3 replicates each.
Format: binding, human

Row | Molecule | Difference (log2), untreated vs GFP
1 | B1 | 5.4971

Same assay, conditions: pairwise comparison untreated vs GFP

Row | Molecule | Difference (log2), untreated vs GFP [log2]
2 | B2 | 0.888
3 | B3 | 0.6933
4 | B4 | 0.9479
5 | B5 | 0.2155
6 | B6 | 1.541

What follows are molecules tested on GFP-14-3-3β and its binding proteins (assay: GFP-14-3-3β co-IP with LC-MS/MS label-free quantification, untreated versus PP1c-treated). Details: log2 difference; pairwise comparison PP1 vs untreated, label-free quantification, 3 replicates each.
Design: species or system human

Row | Difference (log2), PP1 vs untreated | Molecule
7 | 1.978 | B1

Same assay, conditions: pairwise comparison PP1 vs untreated

Row | Difference (log2), PP1 vs untreated [log2] | Molecule
8 | 0.1167 | B2
9 | 0.07996 | B3
10 | 0.1123 | B4
11 | 0.07419 | B5
12 | 0.1214 | B6
